From patent US20240400715A1 (VIBRANT PHARMA, published 2024)
Several values for one entry are separate records, joined by “and”; a condition that tells them apart may be missing. Identical values can stand only once.

Legend:
[1] = biological target: T1, human CD3ε/δ (ACRO systems, CDD-H52W1) (human, UniProt P07766 23-126; P04234 22-105); assay: BLI, antibody captured, antigen in solution;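 further: bispecific antibodies captured on AHIC biosensors to a 1.5 nm loading signal, in PBST with 0.02% detergent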
T1 construct: Bought protein; also called human CD3ϵ/CD3δ; human CD3 epsilon/delta antigen
Experimental: The bispecific antibodies were diluted to 5 ag/ml, and 1.5 nm protein was coupled to the surface of the AHIC sensor chip through 0.02% PBST.

[2] = biological target: T2, human CD3 on Jurkat cells (human, UniProt P07766 23-207; P04234 22-171; P09693 23-182); assay: FACS, Jurkat cells;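 further: flow cytometric binding of bispecific antibodies to Jurkat T cells, threefold serial dilutions incubated half an hour in the cold, EC50 taken from the fitted binding curve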
T2 construct: whole, on cells; CD3 complex as on Jurkat (Clone E6-1) cells; also called CD3 expressing cells (Jurkat)
Experimental: The binding of the bispecific antibodies was tested on the CA expressing human lung adenocarcinoma cell line (H1573) and the CD3 expressing immortalized T lymphocyte line (Jurkat). The steps are as follows: the cells were harvested, counted, and resuspended in FACS buffer (PBS containing 0.1% BSA) at 2×10⁶ cells/ml. 100 μl of cell suspension was incubated in a V-bottom 96-well plate at 4° C. with 3-fold serial dilutions of bispecific antibodies (20 μg/ml-0.009 μg/ml) for 30 minutes; washed twice with pre-cooled FACS buffer. […] GraphPadPrism was used to obtain the binding curve.

Row | Kd [1] [nM] | koff [1] [s⁻¹] | kon [1] [M⁻¹ s⁻¹] | EC50 [2] | Binder
1 | 3.08 | 0.000552 | 180000 | 8.29 nM and 1.08 µg/mL | Knob+CEA-Fab-Hole (206) (bispecific antibody, human IgG4 S228P, kappa, F234A L235A, VHH linked to the VH of the Fab; human IgG4 knob-into-hole Fc) ESKYGPPCPPCPAPEAAGGPSVFLFPPKPKDTLMISRTPEVTCVVVDVSQEDPEVQFNWYVDGVEVHNAKTKPREEQFNSTYRVVSVLTVLHQDWLNGKEYKCKVSNKGLPSSIEKTISKAKGQPREPQVYTLPPCQEEMTKNQVSLWCLVKGFYPSDIAVEWESNGQPENNYKTTPPVLDSDGSFFLYSRLTVDKSRWQEGNVFSCSVMHEALHNHYTQKSLSLSL heavy: EVQLVESGGGFVQAGESLTLSCTSSTLTFTPYRMAWYRQAPGKQRDLVADISSGDGRTTNYADFAKGRFTISRDNIKNTVFLRMTNLKPEDTAVYYCNTFVSFVGIARSWGQGTQVTVSSGGGGSGGGGSEVKLLESGGGLVQPKGSLKLSCAASGFTFNTYAMNWVRQAPGKGLEWVARIRSKYNNYATYYADSVKDRFTISRDDSQSILYLQMNNLKTEDTAMYYCVRHGNFGNSYVSWFAYWGQGTLVTVSSASTKGPSVFPLAPCSRSTSESTAALGCLVKDYFPEPVTVSWNSGALTSGVHTFPAVLQSSGLYSLSSVVTVPSSSLGTKTYTCNVDHKPSNTKVDKRVESKYGPPCPPCPAPEAAGGPSVFLFPPKPKDTLMISRTPEVTCVVVDVSQEDPEVQFNWYVDGVEVHNAKTKPREEQFNSTYRVVSVLTVLHQDWLNGKEYKCKVSNKGLPSSIEKTISKAKGQPREPQVCTLPPSQEEMTKNQVSLSCAVKGFYPSDIAVEWESNGQPENNYKTTPPVLDSDGSFFLVSRLTVDKSRWQEGNVFSCSVMHEALHNRFTQKSLSLSL light: QAVVTQESALTTSPGETVTLTCRSSTGAVTTSNYANWVQEKPDHLFTGLIGGTNKRAPGVPARFSGSLIGDKAALTITGAQTEDEAIYFCALWYSNLWVFGGGTKVEIKRTVAAPSVFIFPPSDEQLKSGTASVVCLLNNFYPREAKVQWKVDNALQSGNSQESVTEQDSKDSTYSLSSTLTLSKADYEKHKVYACEVTHQGLSSPVTKSFNRGEC
2 | – | – | – | 2.86 µg/mL and 22 nM | 307 (TA2), configuration of FIG. 1X (bispecific antibody, IgG4, chains put together from parts; IgG4, kappa; also called CEA-CD3 bispecific antibody 307; not shown: kappa light chain constant domain (CL)) heavy: QVQLVQSGGGVVQPGRSLRLSCKASGYTFTRYTMHWVRQAPGKGLEWIGYINPSRGYTNYNQKVKDRFTISRDNSKNTAFLQMDSLRPEDTGVYFCARYYDDHYCLDYWGQGTPVTVSSASTKGPSVFPLAPCSRSTSESTAALGCLVKDYFPEPVTVSWNSGALTSGVHTFPAVLQSSGLYSLSSVVTVPSSSLGTKTYTCNVDHKPSNTKVDKRVESKYGPPCPPCPAPEAAGGPSVFLFPPKPKDTLMISRTPEVTCVVVDVSQEDPEVQFNWYVDGVEVHNAKTKPREEQFNSTYRVVSVLTVLHQDWLNGKEYKCKVSNKGLPSSIEKTISKAKGQPREPQVYTLPPCQEEMTKNQVSLWCLVKGFYPSDIAVEWESNGQPENNYKTTPPVLDSDGSFFLYSRLTVDKSRWQEGNVFSCSVMHEALHNHYTQKSLSLSLGGGGSGGGGSEVQLVESGGGFVQAGESLTLSCTSSTLTFTPYRMAWYRQAPGKQRDLVADISSGDGRTTNYADFAKGRFTISRDNIKNTVFLRMTNLKPEDTAVYYCNTFVSFVGIARSWGQGTQVTVSS ESKYGPPCPPCPAPEAAGGPSVFLFPPKPKDTLMISRTPEVTCVVVDVSQEDPEVQFNWYVDGVEVHNAKTKPREEQFNSTYRVVSVLTVLHQDWLNGKEYKCKVSNKGLPSSIEKTISKAKGQPREPQVCTLPPSQEEMTKNQVSLSCAVKGFYPSDIAVEWESNGQPENNYKTTPPVLDSDGSFFLVSRLTVDKSRWQEGNVFSCSVMHEALHNRFTQKSLSLSL light: DIQMTQSPSSLSASVGDRVTITCSASSSVSYMNWYQQTPGKAPKRWIYDTSKLASGVPSRFSGSGSGTDYTFTISSLQPEDIATYYCQQWSSNPFTFGQGTKLQIT
3 | – | – | – | 0.181 µg/mL and 1.39 nM | 310 (TA5), configuration of FIG. 1X (bispecific antibody, IgG4, chains put together from parts; IgG4, kappa; also called CEA-CD3 bispecific antibody 310; not shown: kappa light chain constant domain (CL)) heavy: DVQLVQSGAEVKKPGASVKVSCKASGYTFTRYTMHWVRQAPGQGLEWIGYINPSRGYTNYADSVKGRFTITTDKSTSTAYMELSSLRSEDTATYYCARYYDDHYCLDYWGQGTTVTVSSASTKGPSVFPLAPCSRSTSESTAALGCLVKDYFPEPVTVSWNSGALTSGVHTFPAVLQSSGLYSLSSVVTVPSSSLGTKTYTCNVDHKPSNTKVDKRVESKYGPPCPPCPAPEAAGGPSVFLFPPKPKDTLMISRTPEVTCVVVDVSQEDPEVQFNWYVDGVEVHNAKTKPREEQFNSTYRVVSVLTVLHQDWLNGKEYKCKVSNKGLPSSIEKTISKAKGQPREPQVYTLPPCQEEMTKNQVSLWCLVKGFYPSDIAVEWESNGQPENNYKTTPPVLDSDGSFFLYSRLTVDKSRWQEGNVFSCSVMHEALHNHYTQKSLSLSLGGGGSGGGGSEVQLVESGGGFVQAGESLTLSCTSSTLTFTPYRMAWYRQAPGKQRDLVADISSGDGRTTNYADFAKGRFTISRDNIKNTVFLRMTNLKPEDTAVYYCNTFVSFVGIARSWGQGTQVTVSS ESKYGPPCPPCPAPEAAGGPSVFLFPPKPKDTLMISRTPEVTCVVVDVSQEDPEVQFNWYVDGVEVHNAKTKPREEQFNSTYRVVSVLTVLHQDWLNGKEYKCKVSNKGLPSSIEKTISKAKGQPREPQVCTLPPSQEEMTKNQVSLSCAVKGFYPSDIAVEWESNGQPENNYKTTPPVLDSDGSFFLVSRLTVDKSRWQEGNVFSCSVMHEALHNRFTQKSLSLSL light: DIVLTQSPATLSLSPGERATLSCRASQSVSYMNWYQQKPGKAPKRWIYDTSKVASGVPARFSGSGSGTDYSLTINSLEAEDAATYYCQQWSSNPLTFGGGTKVEIK
4 | 1.4 | 0.000419 | 278000 | 0.0129 µg/mL and 0.1 nM | 306 (TA7), configuration of FIG. 1W (bispecific antibody, IgG4, chains put together from VH/VL, CH1, knob-Fc; IgG4, kappa; also called CEA-CD3 bispecific antibody 306; not shown: kappa light chain constant domain (CL)) heavy: EVQLVQSGAEVKKPGASVKVSCKASGFTFTSYYIHWVRQAPGQGLEWIGWIYPENDNTKYNEKFKDRVTITADTSTSTAYLELSSLRSEDTAVYYCARDGYSRYYFDYWGQGTLVTVSSASTKGPSVFPLAPCSRSTSESTAALGCLVKDYFPEPVTVSWNSGALTSGVHTFPAVLQSSGLYSLSSVVTVPSSSLGTKTYTCNVDHKPSNTKVDKRVESKYGPPCPPCPAPEAAGGPSVFLFPPKPKDTLMISRTPEVTCVVVDVSQEDPEVQFNWYVDGVEVHNAKTKPREEQFNSTYRVVSVLTVLHQDWLNGKEYKCKVSNKGLPSSIEKTISKAKGQPREPQVYTLPPCQEEMTKNQVSLWCLVKGFYPSDIAVEWESNGQPENNYKTTPPVLDSDGSFFLYSRLTVDKSRWQEGNVFSCSVMHEALHNHYTQKSLSLSL EVQLVESGGGFVQAGESLTLSCTSSTLTFTPYRMAWYRQAPGKQRDLVADISSGDGRTTNYADFAKGRFTISRDNIKNTVFLRMTNLKPEDTAVYYCNTFVSFVGIARSWGQGTQVTVSSESKYGPPCPPCPAPEAAGGPSVFLFPPKPKDTLMISRTPEVTCVVVDVSQEDPEVQFNWYVDGVEVHNAKTKPREEQFNSTYRVVSVLTVLHQDWLNGKEYKCKVSNKGLPSSIEKTISKAKGQPREPQVCTLPPSQEEMTKNQVSLSCAVKGFYPSDIAVEWESNGQPENNYKTTPPVLDSDGSFFLVSRLTVDKSRWQEGNVFSCSVMHEALHNRFTQKSLSLSL light: DIVMTQSPDSLAVSLGERATINCKSSQSLLNSRTRKNYLAWYQQKPGQSPKLLIYWTSTRKSGVPDRFSGSGSGTDFTLTISSLQAEDVAVYYCKQSFILRTFGQGTKVEIK
5 | – | – | – | 0.282 µg/mL and 2.17 nM | 301 (TA2), configuration of FIG. 1W (bispecific antibody, IgG4, IgG4, kappa; not shown: kappa light chain constant domain (CL)) heavy: QVQLVQSGGGVVQPGRSLRLSCKASGYTFTRYTMHWVRQAPGKGLEWIGYINPSRGYTNYNQKVKDRFTISRDNSKNTAFLQMDSLRPEDTGVYFCARYYDDHYCLDYWGQGTPVTVSSASTKGPSVFPLAPCSRSTSESTAALGCLVKDYFPEPVTVSWNSGALTSGVHTFPAVLQSSGLYSLSSVVTVPSSSLGTKTYTCNVDHKPSNTKVDKRVESKYGPPCPPCPAPEAAGGPSVFLFPPKPKDTLMISRTPEVTCVVVDVSQEDPEVQFNWYVDGVEVHNAKTKPREEQFNSTYRVVSVLTVLHQDWLNGKEYKCKVSNKGLPSSIEKTISKAKGQPREPQVYTLPPCQEEMTKNQVSLWCLVKGFYPSDIAVEWESNGQPENNYKTTPPVLDSDGSFFLYSRLTVDKSRWQEGNVFSCSVMHEALHNHYTQKSLSLSL EVQLVESGGGFVQAGESLTLSCTSSTLTFTPYRMAWYRQAPGKQRDLVADISSGDGRTTNYADFAKGRFTISRDNIKNTVFLRMTNLKPEDTAVYYCNTFVSFVGIARSWGQGTQVTVSSESKYGPPCPPCPAPEAAGGPSVFLFPPKPKDTLMISRTPEVTCVVVDVSQEDPEVQFNWYVDGVEVHNAKTKPREEQFNSTYRVVSVLTVLHQDWLNGKEYKCKVSNKGLPSSIEKTISKAKGQPREPQVCTLPPSQEEMTKNQVSLSCAVKGFYPSDIAVEWESNGQPENNYKTTPPVLDSDGSFFLVSRLTVDKSRWQEGNVFSCSVMHEALHNRFTQKSLSLSL light: DIQMTQSPSSLSASVGDRVTITCSASSSVSYMNWYQQTPGKAPKRWIYDTSKLASGVPSRFSGSGSGTDYTFTISSLQPEDIATYYCQQWSSNPFTFGQGTKLQIT
6 | – | – | – | 0.101 µg/mL and 0.77 nM | 304 (TA5), configuration of FIG. 1W (bispecific antibody, IgG4, chains put together from VH/VL, CH1, knob-Fc; IgG4, kappa; not shown: kappa light chain constant domain (CL)) heavy: DVQLVQSGAEVKKPGASVKVSCKASGYTFTRYTMHWVRQAPGQGLEWIGYINPSRGYTNYADSVKGRFTITTDKSTSTAYMELSSLRSEDTATYYCARYYDDHYCLDYWGQGTTVTVSSASTKGPSVFPLAPCSRSTSESTAALGCLVKDYFPEPVTVSWNSGALTSGVHTFPAVLQSSGLYSLSSVVTVPSSSLGTKTYTCNVDHKPSNTKVDKRVESKYGPPCPPCPAPEAAGGPSVFLFPPKPKDTLMISRTPEVTCVVVDVSQEDPEVQFNWYVDGVEVHNAKTKPREEQFNSTYRVVSVLTVLHQDWLNGKEYKCKVSNKGLPSSIEKTISKAKGQPREPQVYTLPPCQEEMTKNQVSLWCLVKGFYPSDIAVEWESNGQPENNYKTTPPVLDSDGSFFLYSRLTVDKSRWQEGNVFSCSVMHEALHNHYTQKSLSLSL EVQLVESGGGFVQAGESLTLSCTSSTLTFTPYRMAWYRQAPGKQRDLVADISSGDGRTTNYADFAKGRFTISRDNIKNTVFLRMTNLKPEDTAVYYCNTFVSFVGIARSWGQGTQVTVSSESKYGPPCPPCPAPEAAGGPSVFLFPPKPKDTLMISRTPEVTCVVVDVSQEDPEVQFNWYVDGVEVHNAKTKPREEQFNSTYRVVSVLTVLHQDWLNGKEYKCKVSNKGLPSSIEKTISKAKGQPREPQVCTLPPSQEEMTKNQVSLSCAVKGFYPSDIAVEWESNGQPENNYKTTPPVLDSDGSFFLVSRLTVDKSRWQEGNVFSCSVMHEALHNRFTQKSLSLSL light: DIVLTQSPATLSLSPGERATLSCRASQSVSYMNWYQQKPGKAPKRWIYDTSKVASGVPARFSGSGSGTDYSLTINSLEAEDAATYYCQQWSSNPLTFGGGTKVEIK
